US20150191709, “MODIFIED HELICASES” (OXFORD NANOPORE TECHNOLOGIES LIMITED, published 2015)

How the values were obtained:
[1] = target: Hel308 Mbu-E284Faz E284Faz (Methanococcoides burtonii) (UniProt Q12WZ6); conditions: four nitroindoles between SEQ 155 and SEQ 154; nanopore; 100 nM, 960 mM KCl, 10 mM MgCl2, 1 mM ATP
[2] = target: Heat treated Hel308 Mbu-E284Faz E284Faz (Methanococcoides burtonii) (UniProt Q12WZ6); conditions: four nitroindoles between SEQ 155 and SEQ 154; nanopore; 500 nM, 960 mM KCl, 10 mM MgCl2, 1 mM ATP
[3] = target: T1, Hel308 Mbu(E284C/S615C)-bismaleimidePEG3 (Methanococcoides burtonii, UniProt Q12WZ6 SEQ:1-760, E284C/S615C); experiment: fluorescence unwinding; increased processivity; 400 mM NaCl, 1 mM ATP, 10 mM MgCl2; conditions: tags: C284 and C615 crosslinked by bismaleimidePEG3 (closed); 3' ssDNA overhang, 80 and 33 bp duplex sections
T1 sequence: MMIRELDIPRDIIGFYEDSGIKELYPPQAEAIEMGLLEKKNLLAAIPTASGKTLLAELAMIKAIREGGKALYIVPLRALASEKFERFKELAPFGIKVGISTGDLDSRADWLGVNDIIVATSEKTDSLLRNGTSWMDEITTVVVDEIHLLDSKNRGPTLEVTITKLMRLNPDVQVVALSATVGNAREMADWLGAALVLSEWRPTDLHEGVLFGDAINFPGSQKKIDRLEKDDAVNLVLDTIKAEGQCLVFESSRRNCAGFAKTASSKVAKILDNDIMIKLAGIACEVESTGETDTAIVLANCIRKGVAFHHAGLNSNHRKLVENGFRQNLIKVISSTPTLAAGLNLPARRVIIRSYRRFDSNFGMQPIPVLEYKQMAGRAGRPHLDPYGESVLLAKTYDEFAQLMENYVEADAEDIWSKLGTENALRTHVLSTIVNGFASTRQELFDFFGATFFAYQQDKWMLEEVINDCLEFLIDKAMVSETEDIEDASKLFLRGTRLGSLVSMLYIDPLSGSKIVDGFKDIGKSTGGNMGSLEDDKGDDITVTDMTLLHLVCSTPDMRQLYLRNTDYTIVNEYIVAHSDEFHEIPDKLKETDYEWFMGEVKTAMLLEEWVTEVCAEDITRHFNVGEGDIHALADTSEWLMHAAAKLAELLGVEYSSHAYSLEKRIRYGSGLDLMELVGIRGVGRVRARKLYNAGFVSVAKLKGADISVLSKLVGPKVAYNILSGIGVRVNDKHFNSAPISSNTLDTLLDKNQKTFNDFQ
Excerpt: (§1) The fluorescent probe is designed in such a way that its 5′ and 3′ ends are self-complementary and thus form a kinetically-stable hairpin once displaced, preventing the probe from re-annealing to the template strand (FIG. 3 section D). Upon formation of the hairpin product, the FAM is brought into the vicinity of the BHQ-1 and its fluorescence is quenched. A processive enzyme, capable of displacing the 80 mer “blocker” (SEQ ID NO: 111) and fluorescent (SEQ ID NO: 112, labelled with a carboxyfluorescein (FAM) at its 5′ end a black-hole quencher (BHQ-1) at its 3′ end) strands will therefore lead to a decrease in fluorescence over time. However, if the enzyme has a processivity of less than 80 nt it would be unable to displace the fluorescent strand (SEQ ID NO: 112, labelled with a carboxyfluorescein (FAM) at its 5′ end a black-hole quencher (BHQ-1) at its 3′ end) and, therefore, the “blocker” strand (SEQ ID NO: 111) would reanneal to the major bottom strand (FIG. 3 section E, SEQ ID NO: 110).

[4] = target: T2, Hel308 Mbu(E284C/S615C)-bismaleimidePEG11 (Methanococcoides burtonii, UniProt Q12WZ6 SEQ:1-760, E284C/S615C); experiment: as above; conditions: tags: C284 and C615 crosslinked by bismaleimidePEG11 (closed); 3' ssDNA overhang, 80 and 33 bp duplex sections
T2 sequence: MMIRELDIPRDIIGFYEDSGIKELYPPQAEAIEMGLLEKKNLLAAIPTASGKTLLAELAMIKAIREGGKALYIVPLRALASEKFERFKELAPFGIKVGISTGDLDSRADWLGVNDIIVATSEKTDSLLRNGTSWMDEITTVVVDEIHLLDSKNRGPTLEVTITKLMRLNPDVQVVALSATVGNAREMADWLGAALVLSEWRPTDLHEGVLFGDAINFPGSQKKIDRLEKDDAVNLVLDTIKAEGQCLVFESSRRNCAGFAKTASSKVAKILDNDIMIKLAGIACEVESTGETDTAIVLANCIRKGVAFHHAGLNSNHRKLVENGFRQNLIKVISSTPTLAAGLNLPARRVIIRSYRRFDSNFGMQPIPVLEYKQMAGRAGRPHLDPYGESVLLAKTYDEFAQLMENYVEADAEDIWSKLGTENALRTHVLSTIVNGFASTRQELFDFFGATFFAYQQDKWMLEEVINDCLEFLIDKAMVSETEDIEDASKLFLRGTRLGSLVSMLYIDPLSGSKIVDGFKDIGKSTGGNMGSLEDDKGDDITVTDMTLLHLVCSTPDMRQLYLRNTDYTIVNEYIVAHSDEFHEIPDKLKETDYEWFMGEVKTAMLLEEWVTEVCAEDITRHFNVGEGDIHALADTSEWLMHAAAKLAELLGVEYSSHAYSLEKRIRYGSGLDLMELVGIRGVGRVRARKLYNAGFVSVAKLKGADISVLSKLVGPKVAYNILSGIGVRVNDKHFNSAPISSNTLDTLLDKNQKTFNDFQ
Excerpt: as §1

Molecule 3.6 kb DNA has an activity (% movements reaching polyT) [1] of 28 and an activity (% movements reaching polyT) [2] of 71.

B1: 80 bp blocker processivity substrate (dsDNA)
DNA 1: TCGCTGCTCCACAGGTCTCAGCTTGAGCAGCGAAAATAAGAACATTATGATCAGTAGGAGCACTACGACCTTTGTTCTGGTGCTCGTCCGGGCGCCCAAAGTGGAGCGAGTGCCCCC
DNA 2: GCACTCGCTCCACTTTGGGCGCCCGGACGAGCACCAGAACAAAGGTCGTAGTGCTCCTACTGATCATAATGTTCTTATTT
DNA 3: TCGCTGCTCAAGCTGAGACCTGTGGAGCAGCGA
B1: binds [3]; binds [4].
